Measured values taken from paper PMC5513132, “Two bifunctional enzymes from the marine protist Thraustochytrium roseum: biochemical characterization of wax ester synthase/acyl-CoA:diacylglycerol acyltransferase activity catalyzing wax ester and triacylglycerol synthesis” (Biotechnology for Biofuels, 2017).

Legend:
Assay in all cases: purified protein
Format in all cases: biochemical, Thraustochytrium roseum
Conditions in all cases: 100 μM hexadecanol, pH 7.4, 37 °C, acyl-CoA varied 15-90 μM
[1] = system: CC/C=C\C/C=C\C/C=C\C/C=C\C/C=C\CCCC(=O)SCCNC(=O)CCNC(=O)[C@H](O)C(C)(C)COP(=O)(O)OP(=O)(O)OC[C@H]1O[C@@H](n2cnc3c(N)ncnc32)[C@H](O)[C@@H]1OP(=O)(O)O
[2] = system: CCCCC/C=C\C/C=C\C/C=C\C/C=C\CCCC(=O)SCCNC(=O)CCNC(=O)[C@H](O)C(C)(C)COP(=O)(O)OP(=O)(O)OC[C@H]1O[C@@H](n2cnc3c(N)ncnc32)[C@H](O)[C@@H]1OP(=O)(O)O
[3] = system: CCCCC/C=C\C/C=C\C/C=C\CCCCC(=O)SCCNC(=O)CCNC(=O)[C@H](O)C(C)(C)COP(=O)(O)OP(=O)(O)OC[C@H]1O[C@@H](n2cnc3c(N)ncnc32)[C@H](O)[C@@H]1OP(=O)(O)O
[4] = system: CCCCCCCC(=O)SCCNC(=O)CCNC(=O)[C@H](O)C(C)(C)COP(=O)(O)OP(=O)(O)OC[C@H]1O[C@@H](n2cnc3c(N)ncnc32)[C@H](O)[C@@H]1OP(=O)(O)O
[5] = system: CCCCCCCCCC(=O)SCCNC(=O)CCNC(=O)[C@H](O)C(C)(C)COP(=O)(O)OP(=O)(O)OC[C@H]1O[C@@H](n2cnc3c(N)ncnc32)[C@H](O)[C@@H]1OP(=O)(O)O
[6] = system: CCCCCCCCCCCC(=O)SCCNC(=O)CCNC(=O)[C@H](O)C(C)(C)COP(=O)(O)OP(=O)(O)OC[C@H]1O[C@@H](n2cnc3c(N)ncnc32)[C@H](O)[C@@H]1OP(=O)(O)O
[7] = system: CCCCCCCCCCCCCC(=O)SCCNC(=O)CCNC(=O)[C@H](O)C(C)(C)COP(=O)(O)OP(=O)(O)OC[C@H]1O[C@@H](n2cnc3c(N)ncnc32)[C@H](O)[C@@H]1OP(=O)(O)O
[8] = system: CCCCCCCCCCCCCCCC(=O)SCCNC(=O)CCNC(=O)[C@H](O)C(C)(C)COP(=O)(O)OP(=O)(O)OC[C@H]1O[C@@H](n2cnc3c(N)ncnc32)[C@H](O)[C@@H]1OP(=O)(O)O
[9] = system: CCCCCCCCCCCCCCCCCC(=O)SCCNC(=O)CCNC(=O)[C@H](O)C(C)(C)COP(=O)(O)OP(=O)(O)OC[C@H]1O[C@@H](n2cnc3c(N)ncnc32)[C@H](O)[C@@H]1OP(=O)(O)O
purified protein [10] = substrate: CC/C=C\C/C=C\C/C=C\C/C=C\C/C=C\CCCC(=O)SCCNC(=O)CCNC(=O)[C@H](O)C(C)(C)COP(=O)(O)OP(=O)(O)OC[C@H]1O[C@@H](n2cnc3c(N)ncnc32)[C@H](O)[C@@H]1OP(=O)(O)O; remark: listed apart in the source
purified protein [11] = substrate: CCCCC/C=C\C/C=C\C/C=C\C/C=C\CCCC(=O)SCCNC(=O)CCNC(=O)[C@H](O)C(C)(C)COP(=O)(O)OP(=O)(O)OC[C@H]1O[C@@H](n2cnc3c(N)ncnc32)[C@H](O)[C@@H]1OP(=O)(O)O; remark: listed apart in the source
purified protein [12] = substrate: CCCCC/C=C\C/C=C\C/C=C\CCCCC(=O)SCCNC(=O)CCNC(=O)[C@H](O)C(C)(C)COP(=O)(O)OP(=O)(O)OC[C@H]1O[C@@H](n2cnc3c(N)ncnc32)[C@H](O)[C@@H]1OP(=O)(O)O; remark: listed apart in the source
purified protein [13] = substrate: CCCCCCCC(=O)SCCNC(=O)CCNC(=O)[C@H](O)C(C)(C)COP(=O)(O)OP(=O)(O)OC[C@H]1O[C@@H](n2cnc3c(N)ncnc32)[C@H](O)[C@@H]1OP(=O)(O)O; remark: listed apart in the source
purified protein [14] = substrate: CCCCCCCCCC(=O)SCCNC(=O)CCNC(=O)[C@H](O)C(C)(C)COP(=O)(O)OP(=O)(O)OC[C@H]1O[C@@H](n2cnc3c(N)ncnc32)[C@H](O)[C@@H]1OP(=O)(O)O; remark: listed apart in the source
purified protein [15] = substrate: CCCCCCCCCCCC(=O)SCCNC(=O)CCNC(=O)[C@H](O)C(C)(C)COP(=O)(O)OP(=O)(O)OC[C@H]1O[C@@H](n2cnc3c(N)ncnc32)[C@H](O)[C@@H]1OP(=O)(O)O; remark: listed apart in the source
purified protein [16] = substrate: CCCCCCCCCCCCCC(=O)SCCNC(=O)CCNC(=O)[C@H](O)C(C)(C)COP(=O)(O)OP(=O)(O)OC[C@H]1O[C@@H](n2cnc3c(N)ncnc32)[C@H](O)[C@@H]1OP(=O)(O)O; remark: listed apart in the source
purified protein [17] = substrate: CCCCCCCCCCCCCCCC(=O)SCCNC(=O)CCNC(=O)[C@H](O)C(C)(C)COP(=O)(O)OP(=O)(O)OC[C@H]1O[C@@H](n2cnc3c(N)ncnc32)[C@H](O)[C@@H]1OP(=O)(O)O; remark: listed apart in the source
purified protein [18] = substrate: CCCCCCCCCCCCCCCCCC(=O)SCCNC(=O)CCNC(=O)[C@H](O)C(C)(C)COP(=O)(O)OP(=O)(O)OC[C@H]1O[C@@H](n2cnc3c(N)ncnc32)[C@H](O)[C@@H]1OP(=O)(O)O; remark: listed apart in the source

TrWSD5 (ΔTmTrWSD5) (Thraustochytrium roseum; DEL472-494)
Km [1]: 106.2 µM
Vmax [1]: 0.312 µmol/min/mg
kcat [1]: 0.498 s⁻¹
kcat/Km [1]: 4690 M⁻¹ s⁻¹
Km [2]: 226.35 µM
Vmax [2]: 0.103 µmol/min/mg
kcat [2]: 0.165 s⁻¹
kcat/Km [2]: 729 M⁻¹ s⁻¹
Km [3]: 284.68 µM
Vmax [3]: 0.152 µmol/min/mg
kcat [3]: 0.242 s⁻¹
kcat/Km [3]: 850 M⁻¹ s⁻¹
Km [4]: 12.25 µM
Vmax [4]: 0.0639 µmol/min/mg
kcat [4]: 0.102 s⁻¹
kcat/Km [4]: 8330 M⁻¹ s⁻¹
Km [5]: 0.96 µM
Vmax [5]: 0.0589 µmol/min/mg
kcat [5]: 0.0941 s⁻¹
kcat/Km [5]: 98300 M⁻¹ s⁻¹
Km [6]: 25.93 µM
Vmax [6]: 0.152 µmol/min/mg
kcat [6]: 0.243 s⁻¹
kcat/Km [6]: 9370 M⁻¹ s⁻¹
Km [7]: 18.5 µM
Vmax [7]: 0.207 µmol/min/mg
kcat [7]: 0.331 s⁻¹
kcat/Km [7]: 17900 M⁻¹ s⁻¹
Km [8]: 24.77 µM
Vmax [8]: 0.213 µmol/min/mg
kcat [8]: 0.341 s⁻¹
kcat/Km [8]: 13700 M⁻¹ s⁻¹
Km [9]: 75.87 µM
Vmax [9]: 0.379 µmol/min/mg
kcat [9]: 0.604 s⁻¹
kcat/Km [9]: 7960 M⁻¹ s⁻¹

B1: TrWSD4 (Thraustochytrium roseum) (protein)
chain: MAENNNHLDEAVVDEAQREQDVEVEEEVEEEEEEEEEEEEEAVVEDVKATLADGPAEKSPKVAPKQTKRKGRRVKHRASVTTRLIGNLQREAQSKSSWVVGLLFFKSDPGFEAVRETVGKRLLQIPRFRSKLTARRFPAKMEFVELDDDEIDMDYHFRQAFQDRTATLDEVDEFVGSMFDGFNHPMDKPLWQITYIPKLEDGRAVLITNISHIVGDGIAQVEVLMRLLDPVKESKGEKVQKPRTGANKKRKPPALGPFTKAKVFMGGVWEGFFSVISSPDKKNTLRLKDVNKPSPTKRCTFSETIPLDKVKELKNMYEGATLNDVLVTLLTLTLRAYFREVGDKGALRNKVRAQFPINIRSKSEGPFRNDNPRNKFTYGFMPFHVSGNRDASATFWRTKRTLDKIKSSPSPVVQHQVGKVISNIMPLKALNAQLLNLAAKATAQVSNVPGPQDAVTVAGTEVDDMRFLLYSPLSFYVGLLTYNGNLSASFCIDSALADPRLISKHWLPEFEKFYAHAKEAAGESGLIRKPRSCLDCL
Km (purified protein [10]): 131.16 µM
Vmax (purified protein [10]): 0.00905 µmol/min/mg
kcat (purified protein [10]): 0.0114 s⁻¹
kcat/Km (purified protein [10]): 86.6 M⁻¹ s⁻¹
Km (purified protein [11]): 297.17 µM
Vmax (purified protein [11]): 0.0118 µmol/min/mg
kcat (purified protein [11]): 0.0148 s⁻¹
kcat/Km (purified protein [11]): 49.9 M⁻¹ s⁻¹
Km (purified protein [12]): 280.86 µM
Vmax (purified protein [12]): 0.0188 µmol/min/mg
kcat (purified protein [12]): 0.0236 s⁻¹
kcat/Km (purified protein [12]): 84 M⁻¹ s⁻¹
Km (purified protein [13]): 29.93 µM
Vmax (purified protein [13]): 0.0148 µmol/min/mg
kcat (purified protein [13]): 0.0185 s⁻¹
kcat/Km (purified protein [13]): 619 M⁻¹ s⁻¹
Km (purified protein [14]): 17.6 µM
Vmax (purified protein [14]): 0.0122 µmol/min/mg
kcat (purified protein [14]): 0.0154 s⁻¹
kcat/Km (purified protein [14]): 873 M⁻¹ s⁻¹
Km (purified protein [15]): 0.14 µM
Vmax (purified protein [15]): 0.0161 µmol/min/mg
kcat (purified protein [15]): 0.0202 s⁻¹
kcat/Km (purified protein [15]): 146000 M⁻¹ s⁻¹
Km (purified protein [16]): 3.94 µM
Vmax (purified protein [16]): 0.0202 µmol/min/mg
kcat (purified protein [16]): 0.0254 s⁻¹
kcat/Km (purified protein [16]): 6440 M⁻¹ s⁻¹
Km (purified protein [17]): 3.08 µM
Vmax (purified protein [17]): 0.0255 µmol/min/mg
kcat (purified protein [17]): 0.032 s⁻¹
kcat/Km (purified protein [17]): 10400 M⁻¹ s⁻¹
Km (purified protein [18]): 19.15 µM
Vmax (purified protein [18]): 0.0302 µmol/min/mg
kcat (purified protein [18]): 0.0379 s⁻¹
kcat/Km (purified protein [18]): 1980 M⁻¹ s⁻¹
